Data published in paper PMC1435831.
Read-outs that look alike come from different tables or passages of the source.

How the values were obtained:
[1] = target: His-tagged SmpB protein (small protein B), wild type (E. coli) (UniProt P0A832); test: SPR
[2] = target: His-tagged SmpB protein (small protein B), wild type (E. coli) (UniProt P0A832); test: SPR; remark: listed apart in the source

Sequence of UniProt P0A832 (P0A832 whole entry): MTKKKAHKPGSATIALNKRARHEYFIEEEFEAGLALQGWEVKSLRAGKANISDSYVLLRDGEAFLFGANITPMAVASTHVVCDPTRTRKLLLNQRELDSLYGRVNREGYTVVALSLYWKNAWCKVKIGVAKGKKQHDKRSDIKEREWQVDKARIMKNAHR

Kd [1] [nM]	Kd [2] [nM]	Substance
4.4	0.17	30S ribosomal subunit (complex)
4.8	0.17	50S ribosomal subunit (complex)
7.3		70S ribosome (complex)
